Measured values taken from patent publication US20150361149A1 (FLORIDA STATE UNIVERSITY RESEARCH FOUNDATION, published 2015).
Each block holds one molecule with its values, some of them ahead of it.

Key:
[1] = molecular target: FGFR on NIH 3T3 fibroblasts; test: cell-based or functional assay
[2] = molecular target: the molecule itself; test: X-ray crystal structure (Δ1-10 form)
Source text: Crystals of Monofoil-4PΔ1-10 and Difoil-4PΔ1-10 grew in 2 M ammonium sulfate, 0.1 M Na citrate pH 5.5. Crystals were mounted in a stream of gaseous nitrogen at 100 K and diffraction data were collected at either the Southeast Regional Collaborative Access Team 22-BM beam line (λ=1.00 Å) at the Advanced Photon Source, Argonne National Laboratory, using a MarCCD 300 detector (Mar USA) or at the X25 beam line of the National Synchrotron Light Source at Brookhaven National Laboratory, using an ADSC Q315 CCD detector. Each dataset was collected from a single crystal except Monofoil-4PΔ1-10 and Difoil-4PΔ1-10. Datasets from two crystals of Monofoil-4PΔ1-10 were combined for better completion and redundancy.
Diffraction data were indexed, integrated, and scaled using the HKL2000 software package (Otwinowski Z (1993) Proceedings of the CCP4 Study Weekend: “Data Collection and Processing”, eds Sawyer L, Isaacs N, Bailey S (Science and Engineering Research Council, Daresbury Laboratory, England), pp 56-62 and Otwinowski Z and MinorW (1997) Meth Enzymol 276:307-326). Molecular replacement and model building utilized the PHENIX software package (Zwart P H et al. (2008) Methods Mol Biol 426:419-435), with 5% of the data in the reflection files set aside for Rfree calculations (Brunger A T (1992) Nature 355:472-475). […]

[3] = molecular target: the molecule itself; test: size-exclusion chromatography of peptide fragments

mitogenic activity with 3T3 fibroblasts, EC50 [1]: 0.0584 µg/mL
Molecule: human fibroblast growth factor-1 (FGF-1), 140 amino acid form (from UniProt P05230 16-155) (ligand)

B1: Difoil-4PΔ1-10 (other)
chain: HHHHHHPVLLKSTETGQYLRINPDGTVDGTRDRSDPHIQFQISPEGNGEVLLKSTETGQYLRINPDGTVDGTRDRSDPHIQFQISPEGNG
notes: Form used for crystallisation (PDB 3OGF); Three chains make two β-trefoil folds; also called Difoil-4P* (Δ1-10 mutant form)
binding result [2]: binds

Molecule: EVYIKSTETGQYLAMDTDGLLYGSQTPNEECLFLERLEENH (peptide, UniProt P05230 68-108, looked up) [peptide fragment of FGF-1, residues 53-93 (second trefoil-fold subdomain)]
binding result [3]: no binding

Molecule: KPKLLYCSNGGHFLRILPDGTVDGTRDRSDQHIQLQLSAESVG (peptide, UniProt P05230 25-67, looked up) [peptide fragment of FGF-1, residues 10-52 (first trefoil-fold subdomain)]
binding result [3]: no binding

Molecule: YNTYISKKHAEKNWFVGLKKNGSCKRGPRTHYGQKAILFLPLPVSSD (peptide, UniProt P05230 109-155, looked up) [peptide fragment of FGF-1, residues 94-140 (third trefoil-fold subdomain)]
binding result [3]: no binding
